Literature values as cited in PMC3461832.

Experiments:
[1] = biological target: fibrinogen Bβ chain 6-20 (Homo sapiens) (UniProt P02675)
[2] = biological target: fibrinogen Bβ chain peptide β1-25 1-25 (Homo sapiens) (UniProt P02675)

Chain of UniProt P02675 (P02675 1-25): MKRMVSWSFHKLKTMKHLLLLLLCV

For SdrG (from UniProt Q9KI13), the Kd [1] is listed as 0.09 µM and the Kd [2] is listed as 0.14 µM.
